# Measurements from the RNAGym collection of RNA variant scans (doi:10.1073/pnas.2313332121).
# Fewer inactive variants are shown than the library holds.
# B1: TPR 5TU (parent)
# chain: GGAUCUUCUCGAUCUAACAAAAAAGACAAAUCUGCCACAAAGCUUGAGAGCAUCUUCGGAUGCAGAGGCGGCAGCCUUCGGUGGCGCGAUAGCGCCAACGUUCUCAACUAUGACACGCAAAACGCGUGCUCCGUUGAAUGGAGUUUAUCAUG
# Variants of: B1
# Assay: polymerase ribozyme fitness, log enrichment relative to wild type (log ratio); higher = more active; in vitro selection for triplet polymerase activity
# In short: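 Fitness is a logarithmic measure of how a genotype enriched relative to the wild type, with replicate averages weighted by inverse variance. The logarithm uses base 2, and enrichment came from Illumina sequencing of input and output libraries. Those libraries were PCR-built, transcribed mutants of each subunit of a heterodimeric triplet polymerase ribozyme, passed through one triplicate in vitro selection round that included frozen incubation at −7 °C, gel excision of extended constructs and streptavidin-bead capture. Genotypes were kept only if they had ≥10 input reads and ≥1 read per output.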
row,Variant,polymerase ribozyme fitness (log ratio)
1,A39C U78A G84U U90C,≤ -4.2
2,A41C A49C U77C G86C C96U U101G C118G,≤ -4.2
3,A40C A52U U111C A119U U139G U151G,≤ -4.2
4,A40C C87G C105G,-4.19
5,C38U U45G G68A G81U C87G A98G,≤ -4.2
6,A40G A49C U53A,≤ -4.2
7,A41C G92U C103U C123G,-1.2
8,A40C U55A G86C A115C,-3.79
9,A39U G84A C123G,-2.9
10,A41C C93U,-1.61
11,A40U C93U,-0.794
12,A39C G65A A66C C85A G88C G140U,≤ -4.2
13,A40G A41C,-1.36
14,C38U G58C G80A C95A C114G,-3.62
15,A40G G46U G84U C87U A97U U144A,≤ -4.2
16,A41C C79U C95U,-3.78
17,A39U U55G G81U C103A,≤ -4.2
18,A40U G46A C85A A115G A120G,-4.09
19,A39C G48U G68C G80C C96U U101G A106U,≤ -4.2
20,A39C C85U,-2.48
21,A39U G94U A122U G143A A147C,≤ -4.2
22,C38U A47G C51G C93U,-3.21
23,A39U A49G G58A G65A U111G A150G,≤ -4.2
24,C38U A39C G92U,-2.59

row,Variant,polymerase ribozyme fitness (log ratio)
1,A39C G42U C43A G92U U127A A150G,-4.19
2,A39U U55G G67C G86U A115C,≤ -4.2
3,A41C A66U U135A,≤ -4.2
4,A39C U55A C149U,-3.62
5,A41C A47C G59A A60G C85A U127G A137G,≤ -4.2
6,A39U U127C,-4
7,A40C G42U C51G G67A C76A G86C A89U U127G,≤ -4.2
8,A40U U104C C108A,≤ -4.2
9,A39G G48A G59A C96U U102G G128C G141A U144G,≤ -4.2
10,A41C G50C G84A A119G,-3.83
11,A40U U82G G84U C93A C99A U109G G136U,≤ -4.2
12,C38U A89C C93U G124C,-2.94
13,A40G C51A G83A C96U U101G,≤ -4.2
14,C38U U61C C87U C96G G136U,≤ -4.2
15,A40C G50C G80C A97U U134A U145G,≤ -4.2
16,A41C C93G C105U,-2.84
17,A40G A41G C63U C76A G83C G152U,≤ -4.2
18,A41C G50A A52G A120C,-2.96
19,C38U U55A C69G A115G A137G A142G,≤ -4.2
20,A40U G152A,-2.57
21,A40C C87G G94U C95G C118G,≤ -4.2
22,A41C C75U G92C A150U,-2.91
23,A40G C95U,-2.52
24,C38U G59C C95U A98U C103G U148G,≤ -4.2

row,Variant,polymerase ribozyme fitness (log ratio)
1,A39G G46A U56A C93U C108A,≤ -4.2
2,A41C G42U A73U G83U U102G G124C A150G,≤ -4.2
3,A40U C54G C118A,-1.63
4,A39U G50U U139G,-2.97
5,A40G G83U G92A C99G A107U,≤ -4.2
6,A40U U56G C72U A91G,-3.52
7,A40U C103A U139G U146A,-2.67
8,C38U A60U,-1.14
9,A41C C76A C85G C99A,≤ -4.2
10,A40U A41U C57U C108U G143U,≤ -4.2
11,C38U C85U,-0.884
12,A40U A52U G126U U135G A142G,≤ -4.2
13,A39U C43A U44A U56G G59C G94A C103G U144A,≤ -4.2
14,A40G U55A,-2
15,A40C A52G,0.882
16,C38U G86A A89C C95G G112C,≤ -4.2
17,A39C C54A G94A C123U U139A,≤ -4.2
18,A40C C51U U55G G74C A89C G92A,≤ -4.2
19,C38U C93A,-2.86
20,C38G U53A C85U U135A,-1.98
21,A40G C85A G133U,≤ -4.2
22,A40U G48C U53A U144G,-2.19
23,C38U G58C G65A A119G A147C,-2.82
24,C38U C63A C103A,-1.77

row,Variant,polymerase ribozyme fitness (log ratio)
1,A41C C87U A142G,-1.45
2,A40U C87G G133U,≤ -4.2
3,A39U C99U U146G,-2.56
4,A39C G80C C85U A89G C116G,≤ -4.2
5,A41C A49C G92A A106C,≤ -4.2
6,A39C C96U,-2.7
7,A40C A41C C43U U55G C72U C96U A120U G124C,≤ -4.2
8,A40G G67A G94A G100A A107U,≤ -4.2
9,A41C C57U,-0.124
10,A40C G48A,-1.28
11,A40C C76U G86A A115C U135A A142G,-3.94
12,A40U C51A,-0.707
13,A40U C51G,-1.26
14,A39U C69U U82C C96U,-2.44
15,A40C U61A,-1.94
16,C38U G59U C79G,-3.85
17,A40C G42U,≤ -4.2
18,A39G G58A U145G,-1.12
19,A41C G67C C85A C131U A137G,≤ -4.2
20,A41C A91G G141U,-2.56
21,A39U C54U C76A A91C U139G,≤ -4.2
22,A40U C93A U148A,≤ -4.2
23,A39C A49U G67A A121U,≤ -4.2
24,A41C C57A G92A C93A C105U A115C G124A U144A,≤ -4.2

row,Variant,polymerase ribozyme fitness (log ratio)
1,A39U U61C,-4.04
2,C38U G68U G94A,≤ -4.2
3,A39G G42A G81U C87A G94U,≤ -4.2
4,C38G U55G C76A G141A,≤ -4.2
5,C38G G58C G92U C105G U146C,-2.53
6,A39G U144C,-2.67
7,A41C C93A A97C,-3.96
8,A40C G92U U135G,-2.96
9,A41C U44G G46C G84C C123G G128A U145A,≤ -4.2
10,A40G U45A U55G G68C A91C U102G G126A C149G,≤ -4.2
11,A40U A60U G70C C76U C96A,≤ -4.2
12,A39C C76A U101G C114U C125G U145G,-3.83
13,A39U A60U G84U,-3.96
14,A41C G92U U145A A150C,-2.83
15,C38G G50A G58C A60G U145G,≤ -4.2
16,C38U C54A U82C U134G,-3.4
17,A40C A47U C85G A89G U148G,≤ -4.2
18,A40G C57G G58A G117C A119U,-1.96
19,A40U C114G,-3.04
20,A41C G50A U55G U56A G65U G68A U102A G140U,≤ -4.2
21,A41C C85U G112C,-3.5
22,A39C C63A A119C,-4.05
23,C38U G80U U134G A142C G152U,-3.64
24,A41C U53A,-1.22

row,Variant,polymerase ribozyme fitness (log ratio)
1,C38U G83U,-0.752
2,C38U C54U G58C C85U C105G U144C,-2.92
3,A39G U53C A91U C95G,≤ -4.2
4,A40U C57U G68C A107G C108U U139A,≤ -4.2
5,A39G G81A C96G,-3.28
6,C38U A60U A89U,-0.823
7,A40C A52C U53A A73U C76A G83C U102A,≤ -4.2
8,A41C G62A G65C A89C C95G U151A,≤ -4.2
9,A39U G70A G88A U127A U144A,≤ -4.2
10,A39C G70C A97G,≤ -4.2
11,C38G U53A G80A,-2.37
12,A39U G80U,-3.44
13,A40G U53A C54U U82G C87A A89G A137U A138U U145A,≤ -4.2
14,A41C A49C U56A G67C C76G C87A,≤ -4.2
15,C38U A41U C51U G84A G143A,-3.06
16,A40C C57A G68A G86U A121U,≤ -4.2
17,A39G U56G A66U G86U A107C,-3.99
18,A40U G84U G136U,-3.66
19,A40C C54A G59C C87U,-2.96
20,C38U U101A C103G A121U U144G,-3.85
21,A39U A47G U78A A97U,≤ -4.2
22,A41C,-0.379
23,C38G C95A G141U,1.02
24,A41C A49G C51A G71U C93A C95U U111G,≤ -4.2

row,Variant,polymerase ribozyme fitness (log ratio)
1,A40C U44A A49C G65A C75G G84U C118U G128U U130C,≤ -4.2
2,A40G U56A G84A A91C C95G G100U,≤ -4.2
3,C38U U44C C54U G94A C131U U139A U144C,≤ -4.2
4,A41C G80U C95A,-1.46
5,A39G C57G,-2.43
6,A40C G83U A119G,-1.55
7,A40C G59A C85A A89C,-2.83
8,A41C G92A,-3.32
9,A40C C51G U61A C95G,≤ -4.2
10,A39C A107C G141C,≤ -4.2
11,A40C G50A A91G A147C U151A,≤ -4.2
12,A39C G88C C108G,≤ -4.2
13,A40C A150C,-3.94
14,A39U C87U G133U U135G,≤ -4.2
15,A39U A110G U148G,-4
16,C38G U53A G70A G92A A107C,≤ -4.2
17,A41C G86U U90A C129A U130C G140U,≤ -4.2
18,A39U A73G,-2.4
19,A39U U56A C116U,-2.74
20,A40C U45A G48A A49C U55A G62C U77A C118A U134C A142G,≤ -4.2
21,A41C G81A G92U G136U,-3.13
22,A39C A49U C69U C85A C105U,≤ -4.2
23,C38U G68C G88A A147C,≤ -4.2
